{
  "source": "patent US20010016194A1",
  "about": "(priority 1999, published 2001)",
  "key": {"Raf-1 / IL-2Rβ chain": {"test_system": "Raf-1 / IL-2Rβ chain", "conditions": "IL-2 stimulation; cited from earlier work"}, "[1]": {"target": "T1, Raf-1 serine/threonine kinase (Homo sapiens, UniProt P04049)", "T1 construct": "endogenous in cells; host or cells: human T-cell lysate (Raf-1); BL-21 pLysS bacteria (IL-2Rβ fusion)", "T1 sequence (P04049 whole entry, the tested form may be a part)": "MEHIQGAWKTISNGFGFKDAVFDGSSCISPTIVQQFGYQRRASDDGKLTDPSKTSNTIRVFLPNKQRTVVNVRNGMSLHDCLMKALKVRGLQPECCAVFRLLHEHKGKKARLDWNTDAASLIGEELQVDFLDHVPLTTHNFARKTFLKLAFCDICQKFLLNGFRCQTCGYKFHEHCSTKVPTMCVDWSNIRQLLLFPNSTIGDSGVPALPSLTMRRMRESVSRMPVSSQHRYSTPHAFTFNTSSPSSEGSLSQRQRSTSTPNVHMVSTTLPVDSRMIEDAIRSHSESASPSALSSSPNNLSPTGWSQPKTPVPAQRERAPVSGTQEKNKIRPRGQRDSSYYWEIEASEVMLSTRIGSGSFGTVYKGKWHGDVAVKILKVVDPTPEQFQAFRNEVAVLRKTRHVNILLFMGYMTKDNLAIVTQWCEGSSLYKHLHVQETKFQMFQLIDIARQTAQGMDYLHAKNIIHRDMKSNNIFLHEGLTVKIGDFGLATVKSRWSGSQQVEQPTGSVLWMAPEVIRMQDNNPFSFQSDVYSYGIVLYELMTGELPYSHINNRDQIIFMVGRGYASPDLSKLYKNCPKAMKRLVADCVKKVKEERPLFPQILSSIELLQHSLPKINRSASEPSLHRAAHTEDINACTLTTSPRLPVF", "experiment": "Serine/threonine kinase assay on T-cell proteins retained by FLAG-HMK-IL-2Rβ chain, with or without genistein, Histone H1 substrate", "assay_type": "biochemical", "conditions": "genistein 10 μg/ml; T-cell proteins bound to IL-2Rβ chain", "protocol": "The kinase reaction was initiated by the addition of 1 μCi of […] and 25 μM ATP. After 30 min at 24° C., the reaction was stopped by addition of reducing SDS-PAGE sample buffer and boiling.\n(ii) Kinase reaction performed in the presence of Histone-H-1. There is an increased, genistein (tyrosine kinase inhibitor)-independent phosphorylation of Histone-H-1 in T-cell lysates retained on affinity beads coated with FLAG-HMK-IL-2Rβ chain. Control affinity beads coated with proteins isolated from bacteria transformed with vector alone and exposed to T-cell lysates retain only background level of serine/threonine kinase activity. These experiments were repeated a number of times. The results of a representative experiment are shown in FIG. 5 which is a reproduction of an autoradiogram of the products of the kinase reaction performed, in the presence of Histone H-1, on anti-FLAG beads coated with the IL-2Rβ chain construct (WT) and exposed to T-cell lysates in the presence of genistein (lane 3), or in the absence of genistein (lane 2) and then subjected to SDS-PAGE and autoradiography. The control (lane 1) was carried out with the FLAG-HMK vector alone (no insert)."}, "[2]": {"target": "T2, Raf-1/14-3-3 binding to the IL-2Rb chain (Homo sapiens, UniProt P14784)", "T2 construct": "constructs encoding full-length or deletional mutants of the human IL-2Rβ chain; expressed in transfected cells; host or cells: COS cells, pRcCMV-IL-2Rβ, with or without lck or fyn", "T2 sequence (P14784 27-551)": "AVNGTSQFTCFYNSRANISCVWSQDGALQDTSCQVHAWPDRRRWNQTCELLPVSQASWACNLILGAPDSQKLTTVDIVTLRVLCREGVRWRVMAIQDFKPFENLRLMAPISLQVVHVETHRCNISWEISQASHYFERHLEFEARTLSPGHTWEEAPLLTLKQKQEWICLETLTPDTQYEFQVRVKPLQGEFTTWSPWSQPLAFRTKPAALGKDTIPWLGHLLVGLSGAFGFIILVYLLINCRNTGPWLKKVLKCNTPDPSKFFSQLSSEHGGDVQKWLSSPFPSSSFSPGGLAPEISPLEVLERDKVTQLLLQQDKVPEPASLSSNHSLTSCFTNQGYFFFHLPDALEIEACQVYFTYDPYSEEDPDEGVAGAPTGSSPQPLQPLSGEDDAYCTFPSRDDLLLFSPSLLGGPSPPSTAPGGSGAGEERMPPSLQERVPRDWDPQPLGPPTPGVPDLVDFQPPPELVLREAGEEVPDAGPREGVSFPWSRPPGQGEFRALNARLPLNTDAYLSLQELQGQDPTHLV", "experiment": "COS cells co-transfected with IL-2Rβ chain and lck or fyn, immunoprecipitates probed for Raf-1 and 14-3-3", "assay_type": "cell-based", "conditions": "co-transfection of COS cells, FIG. 10a", "excerpt": "In order to perform this examination, COS cells were transfected with IL-2Rβ chain alone, or co-transfected with lck or fyn, then […] with anti-IL-2Rβ chain antibody. The immunoprecipitates were then probed for the presence of Raf-1 and 14-3-3 proteins by immunoblotting (all procedures as detailed hereinabove)."}, "[3]": {"target": "T3, IL-2Rβ chain/Raf-1/14-3-3 complexes (Homo sapiens, UniProt P14784)", "T3 construct": "construction of plasmid FLAG-HMK-IL-2Rβ chain cytoplasmic domain wild type (FLAG-HMK-IL-2Rβ-WT); made in house; host or cells: bacterial lysates (BL-21 pLysS for the IL-2Rβ fusion, M15 for Raf-1)", "T3 sequence (P14784 266-551 limits assumed)": "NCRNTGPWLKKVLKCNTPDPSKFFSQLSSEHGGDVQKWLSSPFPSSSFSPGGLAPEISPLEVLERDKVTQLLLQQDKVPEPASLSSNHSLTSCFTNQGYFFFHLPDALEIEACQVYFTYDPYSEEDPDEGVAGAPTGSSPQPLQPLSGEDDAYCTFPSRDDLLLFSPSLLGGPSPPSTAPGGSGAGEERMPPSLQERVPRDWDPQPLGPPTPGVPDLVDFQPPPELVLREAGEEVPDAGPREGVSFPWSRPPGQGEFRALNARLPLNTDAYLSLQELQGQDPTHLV", "experiment": "Pre-formed IL-2Rβ chain/(His)6 Raf-1/bacterial 14-3-3 complexes exposed to catalytically active p56lck in vitro", "assay_type": "biochemical", "conditions": "enzymatically active kinase, FIG. 10b", "protocol": "The results of this examination are shown in FIG. 10a which is a reproduction of the above immunoblot. […] In addition, a study of the dissociation of pre-formed IL-2Rβ chain/Raf-1/14-3-3 complexes by enzymatically active p56^lck was also carried out. Pre-formed IL-2Rβ chain/(His)6 Raf-1/bacterial 14-3-3 complexes were prepared (see above in respect of FIGS. a-c), exposed to catalytically active p56^lck (Upstate Biotechnology), washed and eluted with FLAG peptide. Eluates were separated on SDS-PAGE and tested for the presence of Raf-1 proteins. The results of this study are shown in FIG. 10b which is a reproduction of an SDS-PAGE gel in which is depicted the Raf-1 bands. […] Since there is no indication that p56^lck interacts with Ras-like sequence of the IL-2Rβ chain, it seems that binding of Raf-1 and p56^lck to distinct subdomains of the same A-region, co-localize kinase and its substrate for fast enzymatic reaction occurring during IL-2R activation."}},
  "note": "“Also recorded” adds a separate entry of the source.",
  "data": [
    {"molecule": "O=c1c(-c2ccc(O)cc2)coc2cc(O)cc(O)c12", "note": "[genistein]", "values": [
      {"measurement": "dissociation of enzymatically active Raf-1 from the IL-2Rβ chain", "setting": "Raf-1 / IL-2Rβ chain", "result": "completely abolished"},
      {"measurement": "effect of genistein on serine/threonine kinase activity (Histone H1 phosphorylation)", "setting": "[1]", "result": "not inhibited; also recorded: independent"}
    ]},
    {"molecule": "p59^fyn: another src-like kinase, co-transfected in COS cells", "values": [
      {"measurement": "effect on Raf-1/14-3-3 binding to the IL-2Rb chain", "setting": "[2]", "result": "did not cause this dissociation"}
    ]},
    {"molecule": "p56^lck: src-family protein tyrosine kinase; catalytically active enzyme from Upstate Biotechnology or co-transfected in COS cells", "values": [
      {"measurement": "effect on Raf-1/14-3-3 binding to the IL-2Rb chain", "setting": "[2]", "result": "abrogation of Raf-1/14-3-3 binding"},
      {"measurement": "dissociation of pre-formed IL-2Rβ chain/Raf-1/14-3-3 complexes", "setting": "[3]", "result": "dissociation"}
    ]}
  ]
}
